Source: PMC6412114

B1: AU-rich dsRNA (dsRNA)
RNA 1: GGAUCCAUUUAUUUAUUUAUUUAAGCUUGG
RNA 2: CCUAGGUUAAAUAAAUAAAUAAAUCGAUCC
B2: AU-rich dsDNA (dsDNA)
DNA 1: GGATCCATTTATTTATTTATTTAAGCTTGG
DNA 2: CCTAGGTTAAATAAATAAATAAATCGATCC
B3: AU-rich DNA/RNA hybrid (DNA:RNA)
RNA: B1 RNA 1
DNA: B2 DNA 2

Assays:
IDH1 [1] = biological target: T1, IDH1 (UniProt O75874 1-414); experiment: EMSA
IDH1 [2] = biological target: T1, IDH1; experiment: EMSA; remark: listed apart in the source

T1 sequence (O75874 whole entry): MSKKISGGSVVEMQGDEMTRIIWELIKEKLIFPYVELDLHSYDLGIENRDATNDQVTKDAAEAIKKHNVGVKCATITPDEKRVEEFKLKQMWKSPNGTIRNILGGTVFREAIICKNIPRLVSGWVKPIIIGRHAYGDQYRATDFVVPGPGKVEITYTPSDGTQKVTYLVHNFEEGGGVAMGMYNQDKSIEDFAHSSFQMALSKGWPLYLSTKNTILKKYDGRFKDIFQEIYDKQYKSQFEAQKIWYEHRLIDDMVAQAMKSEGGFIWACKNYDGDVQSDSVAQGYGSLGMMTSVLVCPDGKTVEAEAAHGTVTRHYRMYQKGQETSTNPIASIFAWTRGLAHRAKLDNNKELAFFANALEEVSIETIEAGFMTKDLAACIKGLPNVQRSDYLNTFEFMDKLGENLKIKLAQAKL

| Binder | binding result (IDH1 [1]) | Kd (IDH1 [2]) [nM] |
| --- | --- | --- |
| GGATCCATTTATTTATTTATTTAAGCTTGG (ssDNA) [AU-rich ssDNA] | no binding | – |
| B1 | no binding | – |
| B2 | no binding | – |
| B3 | no binding | – |
| GGAUCCAUUUAUUUAUUUAUUUAAGCUUGG (ssRNA) [AU-rich ssRNA] | – | 680 ± 70 |
